Key:
Assay in all cases: purified protein
Format in all cases: biochemical, Homo sapiens
purified protein [1] = substrate: Nc1ccn([C@H]2C[C@H](O)[C@@H](COP(=O)(O)OP(=O)(O)OP(=O)(O)O)O2)c(=O)n1; settings: opposite O2-Me-dT template, Mg2+, pH 8.0, 37 °C
purified protein [2] = substrate: Nc1ncnc2c1ncn2[C@H]1C[C@H](O)[C@@H](COP(=O)(O)OP(=O)(O)OP(=O)(O)O)O1; settings: opposite undamaged template dT (P15/T24), Mg2+, pH 8.0, 37 °C
purified protein [3] = substrate: Nc1nc2c(ncn2[C@H]2C[C@H](O)[C@@H](COP(=O)(O)OP(=O)(O)OP(=O)(O)O)O2)c(=O)[nH]1; settings: opposite O2-Me-dT template, Mg2+, pH 8.0, 37 °C

Row | Protein | Km (purified protein [1]) [µM] | kcat (purified protein [1]) [s⁻¹] | kcat/Km (purified protein [1]) [M⁻¹ s⁻¹] | Km (purified protein [2]) [µM] | kcat (purified protein [2]) [s⁻¹] | kcat/Km (purified protein [2]) [M⁻¹ s⁻¹] | Km (purified protein [3]) [µM] | kcat (purified protein [3]) [s⁻¹] | kcat/Km (purified protein [3]) [M⁻¹ s⁻¹]
1 | pol ι (Homo sapiens) (protein) MEKLGVEPEEEGGGDDDEEDAEAWAMELADVGAAASSQGVHDQVLPTPNASSRVIVHVDLDCFYAQVEMISNPELKDKPLGVQQKYLVVTCNYEARKLGVKKLMNVRDAKEKCPQLVLVNGEDLTRYREMSYKVTELLEEFSPVVERLGFDENFVDLTEMVEKRLQQLQSDELSAVTVSGHVYNNQSINLLDVLHIRLLVGSQIAAEMREAMYNQLGLTGCAGVASNKLLAKLVSGVFKPNQQTVLLPESCQHLIHSLNHIKEIPGIGYKTAKCLEALGINSVRDLQTFSPKILEKELGISVAQRIQKLSFGEDNSPVILSGPPQSFSEEDSFKKCSSEVEAKNKIEELLASLLNRVCQDGRKPHTVRLIIRRYSSEKHYGRESRQCPIPSHVIQKLGTGNYDVMTPMVDILMKLFRNMVNVKMPFHLTLLSVCFCNLKALNTAKKGLIDYYLMPSLSTTSRSGKHSFKMKDTHMEDFPKDKETNRDFLPSGRIESTRTRESPLDTTNFSKEKDINEFPLCSLPEGVDQEVFKQLPVDIQEEILSGKSREKFQGKGSVSCPLHASRGVLSFFSKKQMQDIPINPRDHLSSSKQVSSVSPCEPGTSGFNSSSSSYMSSQKDYSYYLDNRLKDERISQGPKEPQGFHFTNSNPAVSAFHSFPNLQSEQLFSRNHTTDSHKQTVATDSHEGLTENREPDSVDEKITFPSDIDPQVFYELPEAVQKELLAEWKRAGSDFHIGHK | 93 ± 14 | 0.00102 ± 6.67e-05 | 10.8 ± 1 | 2.6 ± 0.4 | 0.133 ± 0.01 | 51200 ± 4500 | 46 ± 2 | 0.0019 ± 3.33e-05 | 41.7 ± 1.67
2 | pol η (Homo sapiens) (protein) MATGQDRVVALVDMDCFFVQVEQRQNPHLRNKPCAVVQYKSWKGGGIIAVSYEARAFGVTRSMWADDAKKLCPDLLLAQVRESRGKANLTKYREASVEVMEIMSRFAVIERASIDEAYVDLTSAVQERLQKLQGQPISADLLPSTYIEGLPQGPTTAEETVQKEGMRKQGLFQWLDSLQIDNLTSPDLQLTVGAVIVEEMRAAIERETGFQCSAGISHNKVLAKLACGLNKPNRQTLVSHGSVPQLFSQMPIRKIRSLGGKLGASVIEILGIEYMGELTQFTESQLQSHFGEKNGSWLYAMCRGIEHDPVKPRQLPKTIGCSKNFPGKTALATREQVQWWLLQLAQELEERLTKDRNDNDRVATQLVVSIRVQGDKRLSSLRRCCALTRYDAHKMSHDAFTVIKNCNTSGIQTEWSPPLTMLFLCATKFSASAPSSSTDITSFLSSDPSSLPKVPVTSSEAKTQGSGPAVTATKKATTSLESFFQKAAERQKVKEASLSSLTAPTQAPMSNSPSKPSLPFQTSQSTGTEPFFKQKSLLLKQKQLNNSSVSSPQQNPWSNCKALPNSLPTEYPGCVPVCEGVSKLEESSKATPAEMDLAHNSQSMHASSASKSVLEVTQKATPNPSLLAAEDQVPCEKCGSLVPVWDMPEHMDYHFALELQKSFLQPHSSNPQVVSAVSHQGKRNPKSPLACTNKRPRPEGMQTLESFFKPLTH | 130.2 ± 11.4 | 0.00113 ± 5e-05 | 8.67 ± 0.333 | 5.3 ± 0.3 | 0.817 ± 0.0333 | 154000 ± 3830 | 38.4 ± 1.8 | 0.00065 ± 1.67e-05 | 17.5 ± 0.667
3 | pol κ (Homo sapiens) (protein) MDSTKEKCDSYKDDLLLRMGLNDNKAGMEGLDKEKINKIIMEATKGSRFYGNELKKEKQVNQRIENMMQQKAQITSQQLRKAQLQVDRFAMELEQSRNLSNTIVHIDMDAFYAAVEMRDNPELKDKPIAVGSMSMLSTSNYHARRFGVRAAMPGFIAKRLCPQLIIVPPNFDKYRAVSKEVKEILADYDPNFMAMSLDEAYLNITKHLEERQNWPEDKRRYFIKMGSSVENDNPGKEVNKLSEHERSISPLLFEESPSDVQPPGDPFQVNFEEQNNPQILQNSVVFGTSAQEVVKEIRFRIEQKTTLTASAGIAPNTMLAKVCSDKNKPNGQYQILPNRQAVMDFIKDLPIRKVSGIGKVTEKMLKALGIITCTELYQQRALLSLLFSETSWHYFLHISLGLGSTHLTRDGERKSMSVERTFSEINKAEEQYSLCQELCSELAQDLQKERLKGRTVTIKLKNVNFEVKTRASTVSSVVSTAEEIFAIAKELLKTEIDADFPHPLRLRLMGVRISSFPNEEDRKHQQRSIIGFLQAGNQALSATECTLEKTDKDKFVKPLEMSHKKSFFDKKRSERKWSHQDTFKCEAVNKQSFQTSQPFQVLKKKMNENLEISENSDDCQILTCPVCFRAQGCISLEALNKHVDECLDGPSISENFKMFSCSHVSATKVNKKENVPASSLCEKQDYEAHPKIKEISSVDCIALVDTIDNSSKAESIDALSNKHSKEECSSLPSKSFNIEHCHQNSSSTVSLENEDVGSFRQEYRQPYLCEVKTGQALVCPVCNVEQKTSDLTLFNVHVDVCLNKSFIQELRKDKFNPVNQPKESSRSTGSSSGVQKAVTRTKRPGLMTKYSTSKKIKPNNPKHTLDIFFK | 160 ± 30 | 0.00112 ± 0.0001 | 6.83 | 1.4 ± 0.1 | – | 53300 | 64 ± 12 | 0.000917 ± 6.67e-05 | 14.3

— PMC5081176
